Data: publication PMC9570212, “PAUF Induces Migration of Human Pancreatic Cancer Cells Exclusively via the TLR4/MyD88/NF-κB Signaling Pathway” (International Journal of Molecular Sciences, 2022)

Target: human TLR4 overexpressed in Panc-1 cells (Panc-1_TLR4^OE) (human, UniProt O00206 24-839)
Assay: cell-based or functional assay

human TLR4 overexpressed in Panc-1 cells (Panc-1_TLR4^OE), sequence (O00206 24-839): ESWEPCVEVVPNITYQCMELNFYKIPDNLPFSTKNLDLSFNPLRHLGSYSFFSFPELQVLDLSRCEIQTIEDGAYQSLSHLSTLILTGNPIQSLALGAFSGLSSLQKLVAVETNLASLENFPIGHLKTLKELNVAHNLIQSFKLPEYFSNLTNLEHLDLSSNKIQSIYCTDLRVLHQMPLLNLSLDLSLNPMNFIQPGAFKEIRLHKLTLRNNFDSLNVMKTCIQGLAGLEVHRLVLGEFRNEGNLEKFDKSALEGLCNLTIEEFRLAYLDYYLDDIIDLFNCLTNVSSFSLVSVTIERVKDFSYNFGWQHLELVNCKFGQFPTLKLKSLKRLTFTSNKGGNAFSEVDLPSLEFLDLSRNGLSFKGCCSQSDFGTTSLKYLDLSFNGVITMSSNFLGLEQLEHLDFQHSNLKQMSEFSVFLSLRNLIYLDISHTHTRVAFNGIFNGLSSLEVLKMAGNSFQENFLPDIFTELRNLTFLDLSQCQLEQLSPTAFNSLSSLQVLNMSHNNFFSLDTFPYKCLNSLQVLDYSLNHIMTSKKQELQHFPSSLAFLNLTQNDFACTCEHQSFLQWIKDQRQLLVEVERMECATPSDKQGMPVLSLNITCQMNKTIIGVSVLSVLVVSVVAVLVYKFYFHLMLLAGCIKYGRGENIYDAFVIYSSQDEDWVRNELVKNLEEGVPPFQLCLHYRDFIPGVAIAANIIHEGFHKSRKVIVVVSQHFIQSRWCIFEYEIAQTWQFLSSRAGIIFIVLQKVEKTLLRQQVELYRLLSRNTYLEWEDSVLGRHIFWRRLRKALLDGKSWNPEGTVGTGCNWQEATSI

B1: recombinant pancreatic adenocarcinoma up-regulated factor (PAUF) (ligand, UniProt Q96DA0 17-172, looked up)
chain: GKMYGPGGGKYFSTTEDYDHEITGLRVSVGLLLVKSVQVKLGDSWDVKLGALGGNTQEVTLQPGEYITKVFVAFQAFLRGMVMYTSKDRYFYFGKLDGQISSAYPSQEGQVLVGIYGQYQLLGIKSIGFEWNYPLEEPTTEPPVNLTYSANSPVGR
- NF-κB dual-luciferase reporter activity in Panc-1 cells transiently overexpressing TLR4 (rPAUF 0.1 µg/mL), relative to Panc-1_trans Ctrl cells; no effect of rPAUF in control cells: 4.6 fold
